Assay results published in patent US11208638.
pKd: −log10 of the molar value.

How the values were obtained:
[1] = system: split-Cas9 (alpha-helical lobe + nuclease lobe) (Streptococcus pyogenes); experiment: cell_activity; conditions: HEK293T nucleofected RNP, nocodazole synchronized; 0.6% unsynchronized; WT 34% and 22%
[2] = target: Cas9 nuclease lobe (Streptococcus pyogenes) (UniProt Q99ZW2); experiment: filter
[3] = target: Cas9 alpha-helical lobe (Streptococcus pyogenes) (UniProt Q99ZW2); experiment: filter; conditions: 5 mM MgCl2, RT
[4] = target: dCas9 D10A,H840A (Streptococcus pyogenes) (UniProt Q99ZW2); experiment: EMSA; conditions: 5 mM MgCl2, heparin, RT; PAM NGG
[5] = system: split-dCas9 (alpha-helical lobe + dNuclease lobe) D10A,H840A (Streptococcus pyogenes); experiment: EMSA; conditions: apparent; complex dissociation contributes; 5 mM MgCl2, heparin; PAM NGG

Q: With EMX1 sgRNA ; EMX1 locus target as the substance, how does the activity [1] read?
A: The activity was < 2 % indels.

Q: With delta-hairpins1-2 sgRNA as the substance, how does the pKd ([2]; 5 mM MgCl2, RT) read?
A: The pKd was < 7.00.

Q: How did the pKd [3] turn out when delta-spacer-nexus sgRNA was run?
A: The pKd was < 7.00.

Q: How did the pKd ([2]; Example 1, p568 gives range 0.2-0.8 nM) turn out when full-length sgRNA was run?
A: Its pKd is 9.30.

Q: “full-length sgRNA ; target dsDNA (55 bp, with PAM)” was tested. Which pKd [4] did it give?
A: The pKd was 9.70.

Q: And the pKd [5]?
A: The pKd was 6.15.
